Patent US20150104459A1

What was measured:
[1] = biological target: M2 protein of influenza A/Japan/305/57 (H2N2), on inactivated whole virions (influenza A virus A/Japan/305/57 (H2N2)); test: ELISA, positive control antibody on inactivated whole virions
[2] = biological target: recombinant soluble homotrimeric HA of A/common magpie/Hong Kong/5052/07 (H5N1) (Influenza A virus A/common magpie/Hong Kong/5052/2007 (H5N1)); test: HA microarray, control mAb

Sequence of TCN-032 (8I10) (antibody) (VH): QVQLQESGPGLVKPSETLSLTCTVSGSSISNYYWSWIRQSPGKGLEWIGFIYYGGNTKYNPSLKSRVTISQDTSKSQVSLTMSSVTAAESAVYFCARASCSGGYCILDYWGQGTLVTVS
Sequence of TCN-032 (8I10) (antibody) (VL): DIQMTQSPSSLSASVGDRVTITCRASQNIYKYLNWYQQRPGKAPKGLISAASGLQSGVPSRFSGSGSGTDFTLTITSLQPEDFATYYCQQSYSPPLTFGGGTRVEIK

TCN-032 (8I10) (antibody)
ELISA virus binding (OD450) [1]: 3.61 OD450

TCN-202 (2N9) (antibody)
Trimeric HA Binding RLU [2]: 162 RLU
